PMC6562446 (2019)

Assays:
Experiment in all cases: SPR
Recombinant B7-H4 [1] = target: T1, Recombinant B7-H4 (UniProt Q7Z7D3 25-259, N-glycans, including high mannose glycans through which PFL binds)
T1 chain: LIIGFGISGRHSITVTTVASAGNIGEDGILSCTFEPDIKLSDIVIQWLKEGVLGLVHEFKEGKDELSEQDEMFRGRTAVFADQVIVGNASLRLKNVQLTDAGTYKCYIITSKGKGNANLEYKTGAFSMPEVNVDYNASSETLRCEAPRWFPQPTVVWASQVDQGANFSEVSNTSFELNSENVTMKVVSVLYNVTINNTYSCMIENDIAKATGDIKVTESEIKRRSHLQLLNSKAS

[2] = target: T2, Recombinant integrin αvβ3 (UniProt P06756 31-1048; P05106 27-718)
T2 chain 1: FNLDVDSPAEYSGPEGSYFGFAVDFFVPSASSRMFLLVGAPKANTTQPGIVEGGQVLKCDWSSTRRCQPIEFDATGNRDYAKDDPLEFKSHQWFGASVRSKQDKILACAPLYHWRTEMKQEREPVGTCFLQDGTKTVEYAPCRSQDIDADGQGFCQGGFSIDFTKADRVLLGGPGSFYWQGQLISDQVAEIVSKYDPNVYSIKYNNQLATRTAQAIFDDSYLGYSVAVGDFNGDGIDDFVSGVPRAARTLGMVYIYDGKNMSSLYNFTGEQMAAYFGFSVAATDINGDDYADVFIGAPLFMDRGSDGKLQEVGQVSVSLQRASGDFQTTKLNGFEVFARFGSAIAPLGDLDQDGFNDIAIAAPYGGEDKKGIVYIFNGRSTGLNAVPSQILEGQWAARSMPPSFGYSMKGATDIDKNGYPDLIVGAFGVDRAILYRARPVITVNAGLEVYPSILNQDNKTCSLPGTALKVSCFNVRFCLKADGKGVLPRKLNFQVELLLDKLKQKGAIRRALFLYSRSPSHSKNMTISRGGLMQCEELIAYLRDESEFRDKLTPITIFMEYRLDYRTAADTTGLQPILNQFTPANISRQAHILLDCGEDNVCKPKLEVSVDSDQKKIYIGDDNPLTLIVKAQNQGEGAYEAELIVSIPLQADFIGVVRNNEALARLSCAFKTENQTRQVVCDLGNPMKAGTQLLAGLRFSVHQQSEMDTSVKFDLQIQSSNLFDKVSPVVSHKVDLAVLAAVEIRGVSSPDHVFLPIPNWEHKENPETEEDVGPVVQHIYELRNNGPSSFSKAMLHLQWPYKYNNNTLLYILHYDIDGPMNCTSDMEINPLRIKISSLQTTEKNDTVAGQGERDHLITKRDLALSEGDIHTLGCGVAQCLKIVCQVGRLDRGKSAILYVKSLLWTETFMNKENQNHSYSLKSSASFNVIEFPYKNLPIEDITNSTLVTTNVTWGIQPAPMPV
T2 chain 2: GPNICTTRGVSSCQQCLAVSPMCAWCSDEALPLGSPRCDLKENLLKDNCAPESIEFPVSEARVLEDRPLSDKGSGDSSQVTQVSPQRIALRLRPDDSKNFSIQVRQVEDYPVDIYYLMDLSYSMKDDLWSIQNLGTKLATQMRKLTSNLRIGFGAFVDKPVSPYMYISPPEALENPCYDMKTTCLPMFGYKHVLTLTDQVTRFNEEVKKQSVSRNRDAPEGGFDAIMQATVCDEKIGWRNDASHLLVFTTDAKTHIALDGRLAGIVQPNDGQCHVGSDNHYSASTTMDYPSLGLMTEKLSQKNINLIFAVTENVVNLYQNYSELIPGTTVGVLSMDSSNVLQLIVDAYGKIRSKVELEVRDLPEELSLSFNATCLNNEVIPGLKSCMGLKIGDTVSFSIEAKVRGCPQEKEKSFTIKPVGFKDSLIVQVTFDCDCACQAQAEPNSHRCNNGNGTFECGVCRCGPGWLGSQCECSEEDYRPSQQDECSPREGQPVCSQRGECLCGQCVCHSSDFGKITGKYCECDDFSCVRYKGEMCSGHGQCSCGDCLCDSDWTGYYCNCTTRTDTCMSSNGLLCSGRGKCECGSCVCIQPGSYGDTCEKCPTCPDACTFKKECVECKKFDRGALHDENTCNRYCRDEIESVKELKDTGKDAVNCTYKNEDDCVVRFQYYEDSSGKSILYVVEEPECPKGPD

Recombinant B7-H4 [3] = target: T1, Recombinant B7-H4
[4] = target: T2, Recombinant integrin αvβ3

B1: Pseudomonas fluorescens lectin (PFL) (natural protein)
chain: MSKYAVANQWGGSSAPWHPGGTWVLGARDNQNVVAIEIKSGDGGKSFTGTMTYAGEGPIGFKAQRTGQNQYNVENQWGGNDAPWHPGGKWVIGGRDNQNVIALSVTSSDGGKNLSGTNTYANEGPIGFRGQIE
Question: B1 was tested. Which koff (Recombinant B7-H4 [1]) did it give?
Answer: 0.00043 s⁻¹

Question: What about the koff [2] of the same binder?
Answer: 8.69e-06 s⁻¹

Question: What about the Kd (Recombinant B7-H4 [3]) of the same binder?
Answer: 5.35 nM

Question: What about the Kd [4] of the same binder?
Answer: 1.65 nM
